From PMC11705074 come the findings set out here.

The target in series [1] is T1, HhpR (Pyrococcus yayanosii A1, UniProt F8AFU3 1-281).
T1 sequence: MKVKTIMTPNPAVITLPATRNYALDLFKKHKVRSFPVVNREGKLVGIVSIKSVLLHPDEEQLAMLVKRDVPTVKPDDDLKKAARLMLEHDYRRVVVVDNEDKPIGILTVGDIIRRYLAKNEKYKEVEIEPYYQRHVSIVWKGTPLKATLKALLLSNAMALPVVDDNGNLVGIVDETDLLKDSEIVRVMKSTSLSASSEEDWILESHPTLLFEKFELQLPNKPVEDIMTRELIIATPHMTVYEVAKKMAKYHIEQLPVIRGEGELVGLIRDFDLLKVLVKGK
Put plainly: fluorescence polarization. For orientation: Fluorescence polarisation rises when a labelled molecule tumbles more slowly, as on binding a larger partner.

Series [2] addresses T1, HhpR. Description: fluorescence polarization. The source holds these as a separate data set.

Read-outs that look alike come from different tables or passages of the source.

B1: 44-bp Phhp (dsDNA)
DNA 1: CATATAAAAATTGTTGGGCAAATCTGCCCAGAAAAGCTTAAAAG
DNA 2: CTTTTAAGCTTTTCTGGGCAGATTTGCCCAACAATTTTTATATG
The Kd is the equilibrium constant for the complex coming apart. Higher therefore signals weaker binding. In the case of B1, the equilibrium dissociation constant (Kd) was 1.9 ± 0.4 µM in series [1] and 0.65 ± 0.37 µM in series [2].
